Test results: the supplement of paper PMC7877785
± gives the uncertainty stated by the source.

Experiment: self-splicing fitness, log relative to wild type (ln ratio); higher = more splicing; Tetrahymena group I intron in knt gene, E. coli kanamycin selection, DiMSum; sequences stand for … in CUCUCU…GGAGGGAAAAGUUAUCAGGCAUGCACCUGGUAGCUAGUCUUUAAACCAAUAGAUUGCAUCGGUUUAAAAGGCAAGACCGUCAAAUUGCGGGAAAGGGGUCAACAGCCGUUCAGUACCAAGUCUCAGGGGAAACUUUGAGAUGGCCUUGCAAAGGGUAUGGUAAUAAGCUGACGGACAUGGUCCUAACCACGCAGCCAAGUCCUAAGUCAACAGAUCUUCUGUUGAUAUGGAUGCAGUUCACAGACUAAAUGUCGGUCGGGGAAGAUGUAUUCUUCUCAUAAGAUAUAGUCGGACCUCUCCUUAAUGGGAGCUAGCGGAUGAAGUGAUGCAACACUGGAGCCGCUGGGAACUAAUUUGUAUGCGAAAGUAUAUUGAUUAGUUUUGGAGUACUCGUGGUCG
How it was run: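 The eight P1ex-region nucleotides of an intron in the knt kanamycin-resistance gene on pET-22b(+) were all randomised and the library put into E. coli BL21(DE3). Six replicate transformations were grown overnight at 37°C or 30°C on LB agar with or without 25 μg/mL kanamycin, together with 100 μg/mL carbenicillin, 50 μM IPTG and 0.2% rhamnose. Colonies were pooled and amplicon-sequenced on an Illumina HiSeq 2500. Fitness from DiMSum is the error-weighted combination of wild-type-normalised replicate fold changes, kanamycin over none.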

| Sequence | self-splicing fitness (ln) (30 °C) | self-splicing fitness (ln) (37 °C) |
| --- | --- | --- |
| UUAUAGCAAUAUUACGCCGA | -0.888 ± 0.2 | 0.064 ± 0.25 |
| UUAUAGCAAUAUUACGGAUU | -3.1 ± 0.43 | -2.02 ± 0.29 |
| UUAUAGCAAUAUUACGGCCG | -0.763 ± 0.48 | -0.565 ± 0.37 |
| UUAUAGCAAUAUUACGGCGC | -0.766 ± 0.18 | -0.308 ± 0.17 |
| UUAUAGCAAUAUUACGGGAC | -2.91 ± 0.31 | -2.4 ± 0.34 |
| UUAUAGCAAUAUUACGGGGA | -1.89 ± 0.13 | -1.38 ± 0.15 |
| UUAUAGCAAUAUUACGGGUA | -2.85 ± 0.2 | -1.65 ± 0.19 |
| UUAUAGCAAUAUUACGGGUC | -2.3 ± 0.32 | -2.47 ± 0.41 |
| UUAUAGCAAUAUUACGGGUU | -3.8 ± 0.26 | -1.13 ± 0.15 |
| UUAUAGCAAUAUUACGGUAA | -1.31 ± 0.17 | -0.924 ± 0.17 |
| UUAUAGCAAUAUUACGUACA | -1.06 ± 0.16 | -0.0284 ± 0.16 |
| UUAUAGCAAUAUUACGUCUA | -0.963 ± 0.15 | -0.336 ± 0.11 |
| UUAUAGCAAUAUUACGUGAC | -3.22 ± 0.22 | -0.826 ± 0.22 |
| UUAUAGCAAUAUUACGUGCA | -2.37 ± 0.23 | -1.07 ± 0.2 |
| UUAUAGCAAUAUUACGUUAC | -4.01 ± 0.43 | -3.56 ± 0.37 |
| UUAUAGCAAUAUUACGUUUA | -2.29 ± 0.16 | -0.505 ± 0.12 |
| UUCAAGCAAUAUUACGACAC | -2.8 ± 0.28 | -1.39 ± 0.18 |
| UUCAAGCAAUAUUACGAUCA | -0.845 ± 0.082 | -0.189 ± 0.093 |
| UUCAAGCAAUAUUACGCAAC | – | -1.43 ± 0.47 |
| UUCAAGCAAUAUUACGCCAG | 0.732 ± 0.48 | 0.119 ± 0.33 |
| UUCAAGCAAUAUUACGCGAA | -3.01 ± 0.18 | -1.47 ± 0.13 |
| UUCAAGCAAUAUUACGCUCA | -1.42 ± 0.16 | 0.0916 ± 0.2 |
| UUCAAGCAAUAUUACGCUUC | -3.09 ± 0.22 | -2.8 ± 0.44 |
| UUCAAGCAAUAUUACGGAUG | -2.34 ± 0.14 | -1.7 ± 0.14 |
| UUCAAGCAAUAUUACGGCCU | -2.42 ± 0.17 | -0.267 ± 0.15 |

| Sequence | self-splicing fitness (ln) (30 °C) | self-splicing fitness (ln) (37 °C) |
| --- | --- | --- |
| UUCAAGCAAUAUUACGGCGC | -1.42 ± 0.14 | -1.47 ± 0.2 |
| UUCAAGCAAUAUUACGGGUU | -2.38 ± 0.12 | -0.76 ± 0.12 |
| UUCAAGCAAUAUUACGGUCA | -0.929 ± 0.097 | 0.00589 ± 0.098 |
| UUCAAGCAAUAUUACGUAAC | – | -2.22 ± 0.42 |
| UUCAAGCAAUAUUACGUAAU | -2.49 ± 0.087 | -1.56 ± 0.1 |
| UUCAAGCAAUAUUACGUACU | -1.3 ± 0.13 | -0.455 ± 0.15 |
| UUCAAGCAAUAUUACGUGCA | -0.545 ± 0.047 | -0.00601 ± 0.065 |
| UUCAAGCAAUAUUACGUGGC | -3.8 ± 0.19 | -1.83 ± 0.13 |
| UUCAAGCAAUAUUACGUUAU | -4.39 ± 0.21 | -2.3 ± 0.15 |
| UUCCAGCAAUAUUACGAAAC | – | -2.29 ± 0.35 |
| UUCCAGCAAUAUUACGAAGU | – | -1.47 ± 0.32 |
| UUCCAGCAAUAUUACGAUAG | -2.58 ± 0.18 | -1.4 ± 0.16 |
| UUCCAGCAAUAUUACGAUAU | -3.13 ± 0.25 | -0.723 ± 0.16 |
| UUCCAGCAAUAUUACGAUUU | -2.34 ± 0.088 | -0.783 ± 0.1 |
| UUCCAGCAAUAUUACGCAUC | -3.6 ± 0.23 | -2.2 ± 0.17 |
| UUCCAGCAAUAUUACGCCAU | -3.3 ± 0.19 | -2.82 ± 0.25 |
| UUCCAGCAAUAUUACGCCUU | -2.28 ± 0.1 | -0.957 ± 0.096 |
| UUCCAGCAAUAUUACGCUAA | -0.0987 ± 0.083 | -0.376 ± 0.084 |
| UUCCAGCAAUAUUACGGAGG | -3.51 ± 0.17 | -1.03 ± 0.1 |
| UUCCAGCAAUAUUACGGAGU | -4.4 ± 0.42 | – |
| UUCCAGCAAUAUUACGGCAU | -1.79 ± 0.085 | -0.66 ± 0.089 |
| UUCCAGCAAUAUUACGGGGA | – | -2.87 ± 0.29 |
| UUCCAGCAAUAUUACGUAUC | -1.29 ± 0.15 | -2.83 ± 0.34 |
| UUCCAGCAAUAUUACGUGCA | -1.44 ± 0.1 | -1.11 ± 0.087 |
| UUCCAGCAAUAUUACGUUCC | – | -1.84 ± 0.42 |

| Sequence | self-splicing fitness (ln) (30 °C) | self-splicing fitness (ln) (37 °C) |
| --- | --- | --- |
| UUCGAGCAAUAUUACGAGCA | -1.41 ± 0.16 | -0.946 ± 0.15 |
| UUCGAGCAAUAUUACGAUAC | -3.34 ± 0.23 | -3.26 ± 0.26 |
| UUCGAGCAAUAUUACGAUAG | -2.73 ± 0.44 | -1.77 ± 0.25 |
| UUCGAGCAAUAUUACGAUUG | – | -2.52 ± 0.34 |
| UUCGAGCAAUAUUACGCGGU | -3.26 ± 0.2 | -1.17 ± 0.2 |
| UUCGAGCAAUAUUACGCUAA | -2.91 ± 0.29 | -1.61 ± 0.17 |
| UUCGAGCAAUAUUACGCUCA | -2.23 ± 0.25 | -1.9 ± 0.29 |
| UUCGAGCAAUAUUACGGACG | -1.8 ± 0.18 | -1.42 ± 0.24 |
| UUCGAGCAAUAUUACGGAGC | – | -3.16 ± 0.38 |
| UUCGAGCAAUAUUACGGAGG | -4.27 ± 0.34 | -1.47 ± 0.24 |
| UUCGAGCAAUAUUACGGCGG | -1.3 ± 0.095 | -0.639 ± 0.12 |
| UUCGAGCAAUAUUACGGGUC | -3.03 ± 0.38 | -2.89 ± 0.43 |
| UUCGAGCAAUAUUACGGGUU | -3.21 ± 0.22 | -2.78 ± 0.35 |
| UUCGAGCAAUAUUACGUACG | -3.15 ± 0.38 | – |
| UUCGAGCAAUAUUACGUAUC | -3 ± 0.34 | -0.649 ± 0.23 |
| UUCGAGCAAUAUUACGUAUG | -2.17 ± 0.13 | -2.49 ± 0.19 |
| UUCGAGCAAUAUUACGUCGC | -2.09 ± 0.21 | – |
| UUCGAGCAAUAUUACGUCGU | -3.29 ± 0.33 | -1.24 ± 0.21 |
| UUCGAGCAAUAUUACGUCUU | -2.89 ± 0.31 | -1.69 ± 0.39 |
| UUCGAGCAAUAUUACGUUUC | -3.44 ± 0.35 | -2.37 ± 0.35 |
| UUCUAGCAAUAUUACGAAAA | -1.6 ± 0.14 | -0.631 ± 0.13 |
| UUCUAGCAAUAUUACGAAGG | -2.9 ± 0.19 | -2.38 ± 0.39 |
| UUCUAGCAAUAUUACGACAG | -1.13 ± 0.22 | -1.59 ± 0.32 |
| UUCUAGCAAUAUUACGACCA | -0.559 ± 0.15 | -0.269 ± 0.14 |
| UUCUAGCAAUAUUACGAGCG | -0.769 ± 0.066 | -0.94 ± 0.072 |

| Sequence | self-splicing fitness (ln) (30 °C) | self-splicing fitness (ln) (37 °C) |
| --- | --- | --- |
| UUCUAGCAAUAUUACGAGUC | – | -1.86 ± 0.39 |
| UUCUAGCAAUAUUACGAUAU | -2.27 ± 0.34 | -1.77 ± 0.3 |
| UUCUAGCAAUAUUACGAUCG | – | -2.02 ± 0.28 |
| UUCUAGCAAUAUUACGCAUA | -0.852 ± 0.12 | -0.774 ± 0.14 |
| UUCUAGCAAUAUUACGGAAC | -3.74 ± 0.43 | -1.86 ± 0.3 |
| UUCUAGCAAUAUUACGGACA | -0.456 ± 0.097 | 0.211 ± 0.12 |
| UUCUAGCAAUAUUACGGUGA | -0.462 ± 0.086 | -0.28 ± 0.11 |
| UUCUAGCAAUAUUACGUAUG | -3 ± 0.17 | -1.8 ± 0.17 |
| UUCUAGCAAUAUUACGUGCC | -3.06 ± 0.36 | – |
| UUCUAGCAAUAUUACGUGGU | -4.03 ± 0.34 | -0.962 ± 0.18 |
| UUCUAGCAAUAUUACGUUUA | -1.43 ± 0.16 | -1.45 ± 0.12 |
| UUCUAGCAAUAUUACGUUUC | -2.75 ± 0.39 | -2.47 ± 0.3 |
| UUGAAGCAAUAUUACGAGAA | -1.9 ± 0.17 | -1.7 ± 0.18 |
| UUGAAGCAAUAUUACGAUAA | -0.132 ± 0.23 | 0.686 ± 0.36 |
| UUGAAGCAAUAUUACGCAAA | -0.591 ± 0.13 | -0.121 ± 0.14 |
| UUGAAGCAAUAUUACGCACC | -2.62 ± 0.34 | -1.41 ± 0.4 |
| UUGAAGCAAUAUUACGCCCG | 0.0378 ± 0.14 | 0.251 ± 0.21 |
| UUGAAGCAAUAUUACGCGAU | -1.96 ± 0.34 | – |
| UUGAAGCAAUAUUACGCGCG | 0.0526 ± 0.092 | 0.136 ± 0.12 |
| UUGAAGCAAUAUUACGCGGU | -2.94 ± 0.16 | -2.3 ± 0.19 |
| UUGAAGCAAUAUUACGCUGG | -0.756 ± 0.094 | -0.221 ± 0.15 |
| UUGAAGCAAUAUUACGGCAG | 0.393 ± 0.078 | -0.0313 ± 0.092 |
| UUGAAGCAAUAUUACGGGGG | -2.59 ± 0.17 | -1.9 ± 0.19 |
| UUGAAGCAAUAUUACGUAGG | -1.27 ± 0.11 | -0.153 ± 0.12 |
| UUGAAGCAAUAUUACGUCAU | -1.41 ± 0.056 | -0.306 ± 0.069 |
